The values that follow come from PMC8948244, “Pumilio protects Xbp1 mRNA from regulated Ire1-dependent decay”.

Data set [1] concerns the target T1, hPUM1-HD (Pum-HD domain of human PUM1) (Homo sapiens, UniProt Q14671 828-1168). As to the kind of experiment: EMSA; 100-300 nM protein, 10 nM probe; 10 mM Hepes/KOH pH 7.4, 50 mM KCl, 3 mM MgCl2, 1 mM EDTA, 0.1 mg/ml yeast tRNA, 2 mM DTT, 0.01% Tween-20, 0.2 U RNasin, 5% glycerol, 20 µl; 1 h on ice; 6% native gel, 0.5x TBE, room temperature. The settings on record: protein: recombinant; label: 3' biotin-TEG; single strand. Background: In EMSA bound probe runs differently from free probe, usually more slowly.

In data set [2] the target is T1, hPUM1-HD (Pum-HD domain of human PUM1). As to the kind of experiment: competition; EMSA; 5x, 10x, 50x excess over biotin-labeled WT probe; shifted band disappeared; 10 mM Hepes/KOH pH 7.4, 50 mM KCl, 3 mM MgCl2, 1 mM EDTA, 0.1 mg/ml yeast tRNA, 2 mM DTT, 0.01% Tween-20, 0.2 U RNasin, 5% glycerol, 20 µl; 1 h on ice; 6% native gel, 0.5x TBE, room temperature. The settings on record: protein: recombinant; single strand.

The target is the same in data set [3]. As to the kind of experiment: competition; EMSA; 5x, 10x, 50x excess (source data label: 25x) over biotin-labeled WT probe; no effect; 10 mM Hepes/KOH pH 7.4, 50 mM KCl, 3 mM MgCl2, 1 mM EDTA, 0.1 mg/ml yeast tRNA, 2 mM DTT, 0.01% Tween-20, 0.2 U RNasin, 5% glycerol, 20 µl; 1 h on ice; 6% native gel, 0.5x TBE, room temperature. The settings on record: protein: recombinant; single strand.

T1 sequence (Q14671 828-1168): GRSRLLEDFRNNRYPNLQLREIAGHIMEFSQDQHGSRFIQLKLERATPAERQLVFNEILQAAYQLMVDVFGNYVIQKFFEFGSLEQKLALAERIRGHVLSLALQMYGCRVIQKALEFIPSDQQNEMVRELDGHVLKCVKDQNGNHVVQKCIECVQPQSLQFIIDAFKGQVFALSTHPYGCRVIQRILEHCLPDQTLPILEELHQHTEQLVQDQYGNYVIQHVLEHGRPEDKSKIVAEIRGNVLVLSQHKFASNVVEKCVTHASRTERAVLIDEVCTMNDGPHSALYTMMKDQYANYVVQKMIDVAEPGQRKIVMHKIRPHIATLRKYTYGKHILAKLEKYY

As for GAUAGGCUGUACAUAAAUUCAUAAUCG (ssRNA) [pum1site-wt-3BioTEG (Xbp1 3'UTR PRE1)], the binding result in data set [1] was “binds”.

Regarding GAUAGGCUGUACAUAAAUUCAUAAUCG (ssRNA) [pum1site-wt (unlabeled competitor)], the binding result in data set [2] is listed as “binds”.

For the molecule GAUAGGCACAACAUAAAUUCAUAAUCG (ssRNA) [pum1site-mut (unlabeled competitor, UGUA to ACAA)], the binding result in data set [3] was “no binding”.
